Measurements published in patent US20130205416A1.

Assays:
Experiment in all cases: cell-based or functional assay
[1] = biological target: haemagglutinin of A/England/195/09 (H1N1), on PR8 recombinant virus (Influenza A virus A/England/195/09 (H1N1))
[2] = biological target: haemagglutinin of influenza virus A/Udorn/72 (H3N2) (Influenza A virus A/Udorn/72 H3N2)
[3] = biological target: haemagglutinin of A/Victoria/3/75 (H3N2), on PR8 recombinant virus (Influenza A virus A/Victoria/3/75 (H3N2)), P03435

**Q.** How did the IC50 of inhibition of infectivity (plaque reduction assay) [1] turn out when WLVFFVIFYFFRRRKK (modifications not checked) [FP3 peptide (…)] was run?
**A.** 0.066 to 0.1 µM

**Q.** What about the IC50 in plaque reduction assay [2] of the same binder?
**A.** 16 µM

**Q.** And the IC50 in plaque reduction assay [3]?
**A.** 16 µM
